The target in assay [1] is T1, CD20 (human, UniProt P11836 1-297).
T1 construct: whole, on cells; 2H7 is called murine anti-human CD20; also called CD20 presented on WIL-2S cells; CD20 on Ramos, BJAB, SU-DHL-6 and DoHH2 B cells
T1 sequence (looked up): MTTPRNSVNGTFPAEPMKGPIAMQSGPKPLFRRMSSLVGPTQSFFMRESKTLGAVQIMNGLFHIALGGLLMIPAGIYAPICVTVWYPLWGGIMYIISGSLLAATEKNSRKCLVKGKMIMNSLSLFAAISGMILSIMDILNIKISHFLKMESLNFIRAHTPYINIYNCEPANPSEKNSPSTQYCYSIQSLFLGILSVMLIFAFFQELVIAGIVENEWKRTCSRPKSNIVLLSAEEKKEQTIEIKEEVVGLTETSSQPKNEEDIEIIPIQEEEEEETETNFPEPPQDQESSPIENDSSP
Kind of assay: sandwich flow cytometry: 2e12HL on WIL-2S cells (CD20), then CD28mIgG, then FITC anti-mouse.

Assay [2] has as its target T1, CD20. Kind of assay: flow cytometry on WIL2S cells (CD20), FITC goat anti-human IgG; no unit printed on the axis (legend: ug/ml).
Assay [3] deals with T2, CD28mIgG (UniProt P10747 19-152).
T2 construct: Bought reagent; the construct is not described; also called CD28Ig (Ancell); CD28 fused to mouse antibody; not shown: mouse Ig part of the bought fusion; not described
Briefly: Western blot of non-reduced protein probed with CD28 murine IgG, then goat anti-mouse HRP. As to the method: (§1) Electrophoresis was performed under non-reducing conditions, and without boiling samples prior to loading. After electrophoresis, proteins were transferred to PVDF membranes using a semi-dry electroblotter apparatus (Ellard, Seattle, Wash.) for 1 hour at 100 mAmp. Membranes were blocked in BLOTTO (5% nonfat milk in PBS) overnight with agitation. FIG. 9A: Membranes were incubated with the AbyD02429.2, a Fab directed to the 2H7 antibody, at 5 μg/ml in BLOTTO for one hour, then washed 3 times for 5 minutes each in PBS-0.5% Tween 20. Membranes were then incubated in 6×His-HRP for one hour at a concentration of 0.5 μg/ml. Blots were washed three times for 15 minutes each in PBST. Wet membranes were incubated with ECL solution for 1 minute, followed by exposure to X-omat film for 20 seconds.
(§2) FIG. 9B: Membranes were incubated with CD28Ig (Ancell, Bayport, Minn.) at 10 μg/ml in BLOTTO, then washed three times for 15 minutes each in PBS-0.5% Tween 20. Membranes were then incubated in goat anti-mouse HRP conjugate (CalTag, Burlingame, Calif.) at 1:3000 in BLOTTO. Membranes were washed three times, for 15 minutes each, then incubated in ECL solution for 1 minute, followed by exposure to X-omat film for 20 seconds.
A general note: Immunoblotting shows a protein as a band on a membrane.

For assay [4], the target named is T1, CD20. Briefly: flow cytometry, dilutions of crude COS supernatant on WIL-2S cells (CD20), FITC goat anti-human IgG. Here is the method: Seeded plates containing the proteins were incubated on ice for one hour. Subsequently, the wells were washed once with 200 μl 1% FBS in PBS. Goat anti-human antibody labeled with FITC (Fc Sp) at 1:100 was then added to each well, and the plates were again incubated on ice for one hour. The plates were then washed once with 200 μl 1% FBS in PBS and the cells were re-suspended in 200 μl 1% FBS and analyzed by FACS.
(A flow cytometer gives signals particle by particle.)

The target of assay [5] is T2, CD28mIgG. Kind of assay: Western blot, non-reducing, probed with CD28Ig and goat anti-mouse HRP conjugate. As to the method: as §1, §2
Assay [6] concerns the target T1, CD20. Briefly: flow cytometry on WIL2-S cells (CD20), purified protein at 5 ug/mL, FITC goat anti-human IgG 1:100. Here is the method: Each of the proteins was tested for binding at 5 μg/ml, and binding detected with FITC goat anti-human IgG at 1:100. Control is FITC goat anti-human IgG alone. See the description for FIG. 2 above for more complete descriptions of the modules of the molecules tested.

B1: 2e12 VHVL SMIP (Fc fusion)
chain: QVQLKESGPGLVAPSQSLSITCTVSGFSLTGYGVNWVRQPPGKGLEWLGMIWGDGSTDYNSALKSRLSITKDNSKSQVFLKMNSLQTDDTARYYCARDGYSNFHYYVMDYWGQGTSVTVSSGGGGSGGGGSGGGGSGGGGSDIVLTQSPASLAVSLGQRATISCRASESVEYYVTSLMQWYQQKPGQPPKLLISAASNVESGVPARFSGSGSGTDFSLNIHPVEEDDIAMYFCQQSRKVPWTFGGGTKLEIKR
notes: SMIP: scFv-hinge-CH2-CH3; also called 2E12IgG-VHVL SMIP; 2e12 HL SMIP; not shown: hinge-CH2-CH3 of human IgG
Consider B1, for which the binding result with CD20 [1] is listed as “no binding (tested: 5 ug/ml)”.

B2: 2H7-sss-hIgG-STD1-G19-4 LH (bispecific antibody)
chain (part 1 of 2): QIVLSQSPAILSASPGEKVTMTCRASSSVSYMHWYQQKPGSSPKPWIYAPSNLASGVPARFSGSGSGTSYSLTISRVEAEDAATYYCQQWSFNPPTFGAGTKLELKDGGGSGGGGSGGGGSSQAYLQQSGAESVRPGASVKMSCKASGYTFTSYNMHWVKQTPRQGLEWIGAIYPGNGDTSYNQKFKGKATLTVDKSSSTAYMQLSSLTSEDSAVYFCARVVYYSNSYWYFDVWGTGTTVTVSEPKSSDKTHTSPPSP
chain (part 2 of 2): NYGGGGSGGGGSGGGGSGNSDIQMTQTTSSLSASLGDRVTISCRASQDIRNYLNWYQQKPDGTVKLLIYYTSRLHSGVPSRFSGSGSGTDYSLTIANLQPEDIATYFCQQGNTLPWTFGGGTKLVTKRGGGGSGGGGSGGGGSASEVQLQQSGPELVKPGASMKISCKASGYSFTGYIVNWLKQSHGKNLEWIGLINPYKGLTTYNQKFKGKATLTVDKSSSTAYMELLSLTSEDSAVYYCARSGYYGDSDWYFDVWGAGTTVTVSS
notes: Assembled from modules; also called 2H7sssIgG1-STD1-G19-4 LH; CD20-hIgG-CD3 multispecific molecule (LH); not shown: human IgG1 CH2-CH3
As for B2, the binding result in the assay with CD20 [2] was “binds”.

B3: TRU-015 (Fc fusion, not shown: a dimerising Fc or GST)
chain: QIVLSQSPAILSASPGEKVTMTCRASSSVSYMHWYQQKPGSSPKPWIYAPSNLASGVPARFSGSGSGTSYSLTISRVEAEDAATYYCQQWSFNPPTFGAGTKLELKDGGGSGGGGSGGGGSSQAYLQQSGAESVRPGASVKMSCKASGYTFTSYNMHWVKQTPRQGLEWIGAIYPGNGDTSYNQKFKGKATLTVDKSSSTAYMQLSSLTSEDSAVYFCARVVYYSNSYWYFDVWGTGTTVTVS
notes: SMIP: scFv-hinge-CH2-CH3; also called 2H7 SMIP; CD20 SMIP (TRU015)
Consider B3, for which the binding result in the assay with CD28mIgG [3] is given as “no binding”.

B4: 2H7-sssIgG P238S/P331S-STD1-2e12 VLVH (bispecific antibody)
chain: QIVLSQSPAILSASPGEKVTMTCRASSSVSYMHWYQQKPGSSPKPWIYAPSNLASGVPARFSGSGSGTSYSLTISRVEAEDAATYYCQQWSFNPPTFGAGTKLELKDGGGSGGGGSGGGGSSQAYLQQSGAESVRPGASVKMSCKASGYTFTSYNMHWVKQTPRQGLEWIGAIYPGNGDTSYNQKFKGKATLTVDKSSSTAYMQLSSLTSEDSAVYFCARVVYYSNSYWYFDVWGTGTTVTVSEPKSSDKTHTSPPSPAPELLGGSSVFLFPPKPKDTLMISRTPEVTCVVVDVSHEDPEVKFNWYVDGVEVHNAKTKPREEQYNSTYRVVSVLTVLHQDWLNGKEYKCKVSNKALPASIEKTISKAKGQPREPQVYTLPPSRDELTKNQVSLTCLVKGFYPSDIAVEWESNGQPENNYKTTPPVLDSDGSFFLYSKLTVDKSRWQQGNVFSCSVMHEALHNHYTQKSLSLSPGKNYGGGGSGGGGSGGGGSGNSDIVLTQSPASLAVSLGQRATISCRASESVEYYVTSLMQWYQQKPGQPPKLLISAASNVESGVPARFSGSGSGTDFSLNIHPVEEDDIAMYFCQQSRKVPWTFGGGTKLEIKRGGGGSGGGGSGGGGSQVQLKESGPGLVAPSQSLSITCTVSGFSLTGYGVNWVRQPPGKGLEWLGMIWGDGSTDYNSALKSRLSITKDNSKSQVFLKMNSLQTDDTARYYCARDGYSNFHYYVMDYWGQGTSVTVSS
notes: also called 2H7-IgG-STD1-2E12 LH; 2H7-2E12 LH
Take B4: the binding result with CD20 [4] is reported as “binds”.

B5: SMIP-sized cleaved fragment (2H7-sss-hIgG) of 2H7-sss-hIgG-H6-2e12 (other)
chain: QIVLSQSPAILSASPGEKVTMTCRASSSVSYMHWYQQKPGSSPKPWIYAPSNLASGVPARFSGSGSGTSYSLTISRVEAEDAATYYCQQWSFNPPTFGAGTKLELKDGGGSGGGGSGGGGSSQAYLQQSGAESVRPGASVKMSCKASGYTFTSYNMHWVKQTPRQGLEWIGAIYPGNGDTSYNQKFKGKATLTVDKSSSTAYMQLSSLTSEDSAVYFCARVVYYSNSYWYFDVWGTGTTVTVSEPKSSDKTHTSPPSPAPELLGGSSVFLFPPKPKDTLMISRTPEVTCVVVDVSHEDPEVKFNWYVDGVEVHNAKTKPREEQYNSTYRVVSVLTVLHQDWLNGKEYKCKVSNKALPASIEKTISKAKGQPREPQVYTLPPSRDELTKNQVSLTCLVKGFYPSDIAVEWESNGQPENNYKTTPPVLDSDGSFFLYSKLTVDKSRWQQGNVFSCSVMHEALHNHYTQKSLSLSPGK
notes: Cleavage product seen on gels and blots, about 52 kDa; also called cleaved forms of the multivalent constructs; peptide fragment containing (2H7-sss-hIgG), and missing the CD28 scFv BD2 portion; not shown: C-terminal end: cleaved at or near the H6 linker, site not determined
For the molecule B5, in the assay with CD28mIgG [5], the binding result is “no binding (tested: CD28Ig at 10 µg/ml)”.

B6: 2H7-sssIgG P238S/P331S-STD1-2e12 VHVL (bispecific antibody)
chain: QIVLSQSPAILSASPGEKVTMTCRASSSVSYMHWYQQKPGSSPKPWIYAPSNLASGVPARFSGSGSGTSYSLTISRVEAEDAATYYCQQWSFNPPTFGAGTKLELKDGGGSGGGGSGGGGSSQAYLQQSGAESVRPGASVKMSCKASGYTFTSYNMHWVKQTPRQGLEWIGAIYPGNGDTSYNQKFKGKATLTVDKSSSTAYMQLSSLTSEDSAVYFCARVVYYSNSYWYFDVWGTGTTVTVSEPKSSDKTHTSPPSPAPELLGGSSVFLFPPKPKDTLMISRTPEVTCVVVDVSHEDPEVKFNWYVDGVEVHNAKTKPREEQYNSTYRVVSVLTVLHQDWLNGKEYKCKVSNKALPASIEKTISKAKGQPREPQVYTLPPSRDELTKNQVSLTCLVKGFYPSDIAVEWESNGQPENNYKTTPPVLDSDGSFFLYSKLTVDKSRWQQGNVFSCSVMHEALHNHYTQKSLSLSPGKNYGGGGSGGGGSGGGGSGNSQVQLKESGPGLVAPSQSLSITCTVSGFSLTGYGVNWVRQPPGKGLEWLGMIWGDGSTDYNSALKSRLSITKDNSKSQVFLKMNSLQTDDTARYYCARDGYSNFHYYVMDYWGQGTSVTVSSGGGGSGGGGSGGGGSGGGGSDIVLTQSPASLAVSLGQRATISCRASESVEYYVTSLMQWYQQKPGQPPKLLISAASNVESGVPARFSGSGSGTDFSLNIHPVEEDDIAMYFCQQSRKVPWTFGGGTKLEIKR
notes: Assembled from modules as m10; also called 2H7-IgG-STD1-2E12 HL; 2H7-2E12 HL
B6: the binding result with CD20 [6] was “binds”.

The record behind these values is patent publication US20140154252A1 (EMERGENT PRODUCT DEVELOPMENT SEATTLE, published 2014).
